The values that follow come from publication PMC8153946, “Substrate Selectivity of Coumarin Derivatives by Human CYP1 Enzymes: In Vitro Enzyme Kinetics and In Silico Modeling” (ACS Omega, 2021).

The target of one series is T1, CYP1A2 (Homo sapiens, UniProt P05177).
T1 construct: purchased BD Biosciences Discovery Labware (Woburn, MA, USA); host or cells: baculovirus-insect cells
T1 sequence (P05177 1-516): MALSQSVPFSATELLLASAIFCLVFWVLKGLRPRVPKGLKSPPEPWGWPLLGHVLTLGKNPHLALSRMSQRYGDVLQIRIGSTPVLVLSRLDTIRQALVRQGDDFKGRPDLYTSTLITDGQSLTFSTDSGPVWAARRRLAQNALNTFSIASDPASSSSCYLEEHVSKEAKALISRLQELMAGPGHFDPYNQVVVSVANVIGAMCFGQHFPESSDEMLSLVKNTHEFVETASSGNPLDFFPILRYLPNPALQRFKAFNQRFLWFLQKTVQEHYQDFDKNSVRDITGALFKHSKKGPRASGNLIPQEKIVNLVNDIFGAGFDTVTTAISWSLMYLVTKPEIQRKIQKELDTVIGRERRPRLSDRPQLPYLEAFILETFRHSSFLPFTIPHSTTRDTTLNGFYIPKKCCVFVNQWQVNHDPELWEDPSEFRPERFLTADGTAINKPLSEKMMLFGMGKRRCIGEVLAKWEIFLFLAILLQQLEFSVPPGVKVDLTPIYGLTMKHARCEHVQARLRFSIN
As to the kind of experiment: Michaelis–Menten kinetics of oxidation to fluorescent 7-hydroxy metabolite by recombinant CYP1A2. In kind it is biochemical. Particulars: recombinant CYP1A2, surrogate standard; 95% confidence interval in brackets. As to the method:
(§1) Baculovirus-insect cell-expressed human CYP1A1, CYP1A2, CYP1B1, CYP2A6, CYP2B6, CYP2C8, CYP2C9, CYP2C19, CYP2D6, CYP2E1, CYP3A4, CYP3A5, and CYP3A7 were purchased from BD Biosciences Discovery Labware (Woburn, MA, USA) and used according to the manufacturer’s instructions.
(§2) The kinetic assays were carried out in 100 μL volume containing 100 mM Tris-HCl buffer pH 7.4, 0–40 μM coumarin derivative or 0–10 μM 7-ethoxyresorufin, 1–25 nM recombinant CYP or 0–0.1 g/L microsomal protein, and 20% NADPH regenerating system. Incubations took place at 37 °C in 96-multiwell plates; the fluorescence was measured with a Victor[2] plate reader (PerkinElmer Life Sciences, Turku, Finland). The detailed conditions are described in the figures and tables. The reaction was started by adding NADPH, and fluorescence was measured at 2 min intervals for 40 min using excitation at 405 nm and emission at 460 nm for oxidation of coumarin derivatives[18] and excitation at 570 nm and emission at 615 nm for ethoxyresorufin or pentoxyresorufin 7-O-dealkylations. Incubations without the substrate, enzyme, or NADPH were used as blank reactions. Resorufin was used as a standard, and 3-(4-fluorophenyl)-7-hydroxycoumarin was used as the surrogate standards to calculate the amount of product formed. The linear phase of the reactions was used for calculations.
(§3) Enzyme kinetic parameters were analyzed using the nonlinear Michaelis–Menten equation v = Vmax × S/(Km + S), in which v is the rate for 7-hydroxylation of a coumarin derivative, S is its concentration, and Vmax value is the limiting rate of the reaction of 7-hydroxylation, which reached a half-maximal rate at a concentration of Km for the substrate.

The test system of series [1] is human CYP1 enzymes (CYP1A1, CYP1A2, CYP1B1). Description: Oxidation efficiency compared across all CYP1 forms (Table 1). It counts as biochemical. As to conditions: based on Table 1. As to the method:
as §1, §2, §3

Series [2] relates to 13 recombinant human CYP enzymes. Description: Oxidation rates by 13 recombinant human CYP enzymes at fixed substrate concentration (Figure 2). It counts as biochemical. Particulars: 25 nM CYP. On the procedure: as §1, §2
To find out which CYP forms oxidize the 11 novel coumarin derivatives, we determined their oxidation rates to the corresponding 7-hydroxycoumarin metabolites by 13 recombinant human CYP enzymes at a fixed 10 μM substrate concentration (Figure 2). All except 21, 22, and 23 were oxidized faster by one or several CYP1 forms than by the other CYP forms. […] Oxidation rates of the classical CYP substrates 7-ethoxycoumarin, 7-ethoxyresorufin, and 7-pentoxyresorufin were also determined. […] Oxidation of 7-ethoxycoumarin and 7-ethoxyresorufin was 35 and 60 times faster, respectively, than oxidation of 7-pentoxyresorufin. 7-Ethoxyresorufin was oxidized by CYP1A2 and CYP1B1 at 30–40% of the rate of CYP1A1.
Figure 2 Oxidation of the coumarin derivatives and 7-ethoxy- and 7-pentoxyresorufin by 13 human CYP forms. The formation of fluorescent metabolites was determined in incubations containing a 25 nM CYP, a 20% NADPH regenerating system, and a 10 μM coumarin derivative or 1 μM 7-ethoxy/7-pentoxyresorufin in 100 mM Tris-HCl pH 7.4 in the kinetic experimental setup. […] Note the variation in Y-axis scales between subpanels.

The target of the next series is T2, human CYP1A1 (Homo sapiens, UniProt P04798).
T2 construct: purchased BD Biosciences Discovery Labware (Woburn, MA, USA); host or cells: baculovirus-insect cells
T2 sequence (P04798 1-512): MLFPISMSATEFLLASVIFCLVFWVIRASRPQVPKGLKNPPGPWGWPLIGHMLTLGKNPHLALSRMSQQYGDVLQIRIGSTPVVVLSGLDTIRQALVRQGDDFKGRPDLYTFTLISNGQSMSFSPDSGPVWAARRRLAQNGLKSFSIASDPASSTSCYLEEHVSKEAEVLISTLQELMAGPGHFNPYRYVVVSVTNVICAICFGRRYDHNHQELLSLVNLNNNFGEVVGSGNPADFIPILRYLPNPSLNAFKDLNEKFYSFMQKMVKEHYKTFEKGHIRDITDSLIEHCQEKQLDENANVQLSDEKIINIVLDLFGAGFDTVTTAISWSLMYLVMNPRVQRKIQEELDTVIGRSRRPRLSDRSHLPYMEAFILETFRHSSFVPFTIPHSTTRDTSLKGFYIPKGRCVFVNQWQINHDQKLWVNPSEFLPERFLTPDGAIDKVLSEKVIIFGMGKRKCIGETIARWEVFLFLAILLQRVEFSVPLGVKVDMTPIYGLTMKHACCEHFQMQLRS
Description: Michaelis–Menten kinetics of oxidation to fluorescent 7-hydroxy metabolite by recombinant CYP1A1. It counts as biochemical. Particulars: recombinant CYP1A1, surrogate standard; 95% confidence interval in brackets. On the procedure:
as §1, §2, §3

Substrate in series [3]: CCOc1ccc2ccc(=O)oc2c1
As to the kind of experiment: Michaelis–Menten kinetics of oxidation to fluorescent 7-hydroxy metabolite by recombinant CYP1B1. It counts as biochemical, human. Particulars: other: recombinant CYP1B1, 100 mM Tris-HCl pH 7.4, 37 °C, 95% confidence interval in brackets. As to the method: as §1, §2, §3

Substrate in series [4]: CC(=O)Oc1cccc(-c2cc3cc(Cl)ccc3oc2=O)c1
The description is as above. Particulars: other: recombinant CYP1B1, 100 mM Tris-HCl pH 7.4, 37 °C, 95% confidence interval in brackets. It counts as biochemical, human. As to the method: as §1, §2, §3

Substrate in series [5]: CC(=O)Oc1ccc(-c2cc3cc(Cl)ccc3oc2=O)cc1
The description is as above. Particulars: other: recombinant CYP1B1, 100 mM Tris-HCl pH 7.4, 37 °C, 95% confidence interval in brackets. It counts as biochemical, human. As to the method:
as §1, §2, §3

Substrate in series [6]: COc1cccc(-c2cc3cc(OC)ccc3oc2=O)c1
The description is as above. In kind it is biochemical, human. Particulars: other: recombinant CYP1B1, 100 mM Tris-HCl pH 7.4, 37 °C, 95% confidence interval in brackets. On the procedure:
as §1, §2, §3

Substrate in series [7]: O=c1oc2ccc(O)cc2cc1-c1cccc(O)c1
The series is described as above. It counts as biochemical, human. As to conditions: other: recombinant CYP1B1, 100 mM Tris-HCl pH 7.4, 37 °C, 95% confidence interval in brackets. On the procedure: as §1, §2, §3

Substrate in series [8]: CCCCCOc1ccc2nc3ccc(=O)cc-3oc2c1
The series is described as above. It counts as biochemical, human. Particulars: other: recombinant CYP1B1, 100 mM Tris-HCl pH 7.4, 37 °C, 95% confidence interval in brackets. On the procedure: as §1, §2, §3

Substrate in series [9]: CCOc1ccc2nc3ccc(=O)cc-3oc2c1
Described as above. Particulars: other: recombinant CYP1B1, 100 mM Tris-HCl pH 7.4, 37 °C, 95% confidence interval in brackets. In kind it is biochemical, human. On the procedure:
as §1, §2, §3

Take `CCCCCOc1ccc2nc3ccc(=O)cc-3oc2c1` [Compound 26, 7-pentoxyresorufin, reference compound]: the Vmax on CYP1A2 is given as 0.25 mol/(min·mol CYP); at human CYP1A1, 1.35 mol/(min·mol CYP). Further, the “substrate efficiency compared among CYP1 enzymes” value in series [1] is “efficient substrates for CYP1A1 compared with CYP1A2 and CYP1B1”. The “CYP1 form oxidizing the substrate fastest” value in series [2] (10 μM coumarin derivative or 1 μM 7-ethoxy/7-pentoxyresorufin) is “oxidized faster by CYP1A1 than the other CYP1 enzymes”. Further, the “fluorescence change and rate of the oxidation” value in series [2] (fixed substrate concentration) was “lowest”.

B1: human CYP1B1 (Homo sapiens) (protein)
chain: MGTSLSPNDPWPLNPLSIQQTTLLLLLSVLATVHVGQRLLRQRRRQLRSAPPGPFAWPLIGNAAAVGQAAHLSFARLARRYGDVFQIRLGSCPIVVLNGERAIHQALVQQGSAFADRPAFASFRVVSGGRSMAFGHYSEHWKVQRRAAHSMMRNFFTRQPRSRQVLEGHVLSEARELVALLVRGSADGAFLDPRPLTVVAVANVMSAVCFGCRYSHDDPEFRELLSHNEEFGRTVGAGSLVDVMPWLQYFPNPVRTVFREFEQLNRNFSNFILDKFLRHCESLRPGAAPRDMMDAFILSAEKKAAGDSHGGGARLDLENVPATITDIFGASQDTLSTALQWLLLLFTRYPDVQTRVQAELDQVVGRDRLPCMGDQPNLPYVLAFLYEAMRFSSFVPVTIPHATTANTSVLGYHIPKDTVVFVNQWSVNHDPLKWPNPENFDPARFLDKDGLINKDLTSRVMIFSVGKRRCIGEELSKMQLFLFISILAHQCDFRANPNEPAKMNFSYGLTIKPKSFKVNVTLRESMELLDSAVQNLQAKETCQ
notes: purchased BD Biosciences Discovery Labware (Woburn, MA, USA); host or cells: baculovirus-insect cells
For the molecule B1, the Km is recorded as 120 (0–282) μM in series [3]; 1.1 (0.5–1.7) μM in series [4]; 0.095 (0.04–0.15) μM in series [5]; 0.43 (0.24–0.61) μM in [6]; 0.53 (0–1.1) μM in [7]; 2.59 (1.65–3.53) μM in [8]. The Km in series [9] is listed as 0.096 (0.072–0.119) μM. For the same molecule, the kcat in series [3] is on record as 1.75 (0–3.54) mol/(min·mol CYP); in series [4], 1.1 (0.96–1.2) mol/(min·mol CYP); in series [5], 5.1 (4.7–5.5) mol/(min·mol CYP); in [6], 9.3 (8.2–10.4) mol/(min·mol CYP); in series [7] it was 0.29 (0.25–0.34) mol/(min·mol CYP); in [8], 0.37 (0.28–0.46) mol/(min·mol CYP). Moreover, in series [9], the kcat is on record as 3.3 (3.0–3.6) mol/(min·mol CYP).
